Laboratory results reported in patent US11945858B2, “Antibodies and antibody fragments against HNAV1.7 channel and their use in pain and cancer indications” (NATIONAL RESEARCH COUNCIL OF CANADA, priority 2018, dated 2024).
“And” between values parts separate entries of the source, which are not always exact repeats. Equal values may be shown once. “Also recorded” adds a separate entry of the source.

Tests used:
CHO-3E7 = assay: Cell-ELISA on live CHO-3E7 cells; type: cell-based, Chinese hamster; conditions: hybridoma supernatant, OD450 nm
Description: Cell-ELISA. Sterile 96-well plates (Costar #3595) were pre-treated with 50 μl/well of branched polyethyleneimine (PEI, Sigma Cat #408727) at 25 μg/ml in PBS for 30 min at room temperature. PEI was removed and CHO-3E7 or hNAv1.7-CHO (ChanTest cat #CT4003) were seeded at 6×10^5 cells per well in FreeStyle F17 Expression Medium (Gibco Cat #A1383501) and incubated overnight at 37° C., 5% CO2. Microplates were blocked with Starting block (Thermofisher Cat #37538) for 30 min at room temperature, and 50 μl of hybridoma supernatants were added and incubated at 4° C. for 3 h. Plates were washed 5 times with PBS and incubated for one hour at 4° C. with 50 μl of secondary antibody HRP-conjugated F(ab′)2 goat anti-mouse IgG (H+L) (Jackson Immunoresearch #115-036-062) diluted 1/5000 in blocking buffer. After 10 washes with PBS, 50 μl of TMB substrate solution (Pierce Cat #34021) was added and further incubated for 60 min at room temperature. Twenty-five μl/well of stop solution ([…] 1M) was added and OD450 nm measurements were done using a microplate reader (Spectramax 340 PC, Molecular Devices).

[1] = tested on: overlapping antigen-peptides derived from DIE3IR; assay: ELISA of mAbs on overlapping antigen-peptides derived from DIE3IR; type: binding, human; conditions: peptides coated 100-500 ng/well
Description: The peptides were custom-synthesized (Biomatik) and tested for antibody binding by ELISA. […] The wells were blocked with 1% BSA in TBS-T for 30 min and then incubated with 1:1000 dilution of anti-hNav1.7 mAb at room temperature (RT) for one hr. Following three TBS-T washes (3×5 min), mAb binding to peptides was detected by incubating with HRP-conjugated anti-mouse Fc antibody for 90 min at RT in TBS-T. The bound antibody was detected with SureBlue™ TMB reagent kit (KPL) by colorimetric measurement at 450 nm according to manufacturer's instructions.
To identify the epitope for mAb 3A8 on DIE3IR, seven overlapping antigen-peptides were generated (FIG. 15A) and an ELISA was performed to determine the binding between these peptides and the various mAb (FIGS. 15C to 15I).

FC5DIE3IR = biological target: T1, FC5DIE3IR (Homo sapiens, UniProt Q15858); assay: Surface Plasmon Resonance of mAbs, FC5DIE3IR; type: binding
T1 construct: The supernatant was collected and loaded on a 5 ml MabSelect™ SuRe™ column; made in house; host or cells: CHO-3E7 (transient, pTT5 vector), purified from supernatant
Description: Surface Plasmon Resonance of mAbs. FC5 and FC5DIE3IR proteins were SEC purified using a Superdex 75 column (GE Healthcare) connected to an AKTAPurifier (GE Healthcare) in HBS-EP+ running buffer (10 mM HEPES, pH 7.4, containing 150 mM NaCl, 3 mM EDTA and 0.05% P20) at a flow rate of 1 ml/min. Monomeric eluted peaks were used to flow over Fc-capture 3A8 mAb surfaces. To prepare the 3A8 mAb surfaces, approximately 6000 RUs of anti-mouse IgG (GE Healthcare) was first immobilized on CM5 Series S sensor chips (GE Healthcare) at pH 5.0, using standard amine coupling methods previously reported (Hussack et al., 2011) and according to the manufacturer's instructions (GE Healthcare). HBS-EP running buffer used for SPR experiments. The mAb 3A8 was captured on the anti-mouse IgG surface using 10 μg/ml of mAb, 30 sec contact time and flow rate of 10 μl/min. IMAC-purified DI-D VHH was passed through a Superdex 75 (GE Healthcare) column for SEC purification in HBS-EP buffer (10 mM HEPES, pH 7.4, containing 150 mM NaCl, 3 mM EDTA and 0.005% P20), connected to an AKTAPurifier (GE Healthcare) at a flow rate of 1 ml/min. Test binding experiments of FC5 control and FC5DIE3IR involved flowing 1 μM concentrations of SEC-pure material over the mAb surface at a flow rate of 30 μl/min for 5 min. Surfaces could be regenerated using 10 mM glycine, pH 1.7, with a 120 sec pulse at 20 μl/min. All SPR experiments were evaluated with Biacore T200 Software v 3.0. For kinetic analysis, single cycle kinetic analysis was used by flowing a range of FC5DIE3IR concentrations (320 nM-20 nM) at a flow rate of 30 μl/min, with 600 sec contact time and 1200 sec dissociation. Regeneration conditions were the same as above. Data were fit to a 1:1 binding model and analyzed using the Biacore T200 Software v3.0.
Surfaces were regenerated by washing with running buffer (HBS-EP). Data were analyzed with BIAevaluation 4.1 software as described (Hussack et al., 2011) and affinities determined using the steady state binding model.
Surface Plasmon Resonance (SPR) for monoclonal antibodies.

hNav1.7 channels = hNav1.7 channels (Homo sapiens, UniProt Q15858, W1161R); assay: Patch-clamp whole-cell recordings in hNav1.7-HEK293 cells; type: cell-based
[2] = −20 mV, after antibody application (1 μM)

B1: 3A8: anti-hNav1.7 mouse monoclonal antibody, IgG2a, k; heavy chain SEQ ID NO: 12, light chain SEQ ID NO: 18 (antibody, V domains shown)
VH: QVQLQQPGAELVKPGASVKLSCKASGYTFTNYWMHWVKQRPGQGLEWIGEINPSNGRANYNEKFKSKATLTVDKSSSTAYMQLSSLTSEDSAVYYCARSPYGYYDYWGQGTTLTVSSAKTTAPSVYPLAP
VL: DVLMTQTPLSLPVSLGDQASISCRSSQSLLHSNGNTYFHWYLQKPGQSPKLLIYKVSNRFFGVPDRFSGSGSGTDFTLKISRVEAEDLGVYFCSQITHVPLTFGAGTKLELKRADAAPTVSIFPPSS
modifications: Heavy chain of the 3A8 antibody without leader sequence; Light chain of the 3A8 antibody without leader sequence
CHO-3E7; duplicate 1
  ELISA on live cells (duplicates) CHO-3E7: −0.027
CHO-3E7; duplicate 2
  ELISA on live cells (duplicates) CHO-3E7: −0.018
[1]
  Peptide in which the binding motif resides / that is bound: pep #2a
FC5DIE3IR
  ka: 7050 M⁻¹ s⁻¹
  kd: 0.000259 s⁻¹
FC5DIE3IR; Fc-captured mAb, FC5-DIE3IR flowed, 25 °C
  Rmax (RU): 80 RU
FC5DIE3IR; SPR, 25 °C
  Binding to FC5DIE3IR (comment, in words): bound specifically FC5DIE3IR; also recorded: strong and specific binding; also recorded: strongly and specifically bound; also recorded: extremely slow off rate
hNav1.7 channels; 1 μM
  Voltage-dependence of activation (shift V1/2 activation): −6.0±1.0 mV and −6.0 mV
  Voltage-dependence of the steady-state fast inactivation (shift V1/2 inactivation): −7.1±1.7 mV and −7.1 mV
hNav1.7 channels; 1 μM, single time-course recording (FIG. 6B)
  Reduction of the hNav1.7 current in the time course: approx. 13%
hNav1.7 channels; 1 μM, single time-course recording of the figure
  Onset time of the effect (exponential fit of the current decay, T): 176 s
hNav1.7 channels; example recordings, 1-3 μM
  Effect on hNav1.7 currents (in words): reduced the hNav1.7 currents in a dose dependent manner
hNav1.7 channels; [2]
  Fast inactivation (time constant): 0.72 ± 0.08 ms and 0.72 ms
  Time-to-peak: 0.88 ± 0.07 ms and 0.88 ms
